Patent US20120039802A1 (published 2012)

Experiments:
[1] = molecular target: T1, cMet-Fc fusion protein (extracellular domain of the cMet receptor expressed as an Fc-fusion protein) (human, UniProt P08581 25-932); assay: phage ELISA on cMet-Fc, competitor HGF 100 ng/mL
T1 construct: extracellular domain; also called soluble cMet-Fc-fusion protein; soluble cMet receptor; not shown: Fc part
Summary of the method: (§1)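 Plates coated with 0.5 μg/mL cMet-Fc, with TRAIL-Fc as background, then blocked with 3% BSA. Bound phage detected with HRP anti-M13 antibody.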

[2] = molecular target: T2, human cMet expressed on 3T3 cells (human, UniProt P08581 25-1390); assay: whole cell phage ELISA, 3T3 human cMet vs 3T3
T2 construct: whole, on cells; cells fixed with glutaraldehyde; also called cell surface-expressed human cMet; 3T3 cells that over-express human cMet
T2 sequence (P08581 25-1390): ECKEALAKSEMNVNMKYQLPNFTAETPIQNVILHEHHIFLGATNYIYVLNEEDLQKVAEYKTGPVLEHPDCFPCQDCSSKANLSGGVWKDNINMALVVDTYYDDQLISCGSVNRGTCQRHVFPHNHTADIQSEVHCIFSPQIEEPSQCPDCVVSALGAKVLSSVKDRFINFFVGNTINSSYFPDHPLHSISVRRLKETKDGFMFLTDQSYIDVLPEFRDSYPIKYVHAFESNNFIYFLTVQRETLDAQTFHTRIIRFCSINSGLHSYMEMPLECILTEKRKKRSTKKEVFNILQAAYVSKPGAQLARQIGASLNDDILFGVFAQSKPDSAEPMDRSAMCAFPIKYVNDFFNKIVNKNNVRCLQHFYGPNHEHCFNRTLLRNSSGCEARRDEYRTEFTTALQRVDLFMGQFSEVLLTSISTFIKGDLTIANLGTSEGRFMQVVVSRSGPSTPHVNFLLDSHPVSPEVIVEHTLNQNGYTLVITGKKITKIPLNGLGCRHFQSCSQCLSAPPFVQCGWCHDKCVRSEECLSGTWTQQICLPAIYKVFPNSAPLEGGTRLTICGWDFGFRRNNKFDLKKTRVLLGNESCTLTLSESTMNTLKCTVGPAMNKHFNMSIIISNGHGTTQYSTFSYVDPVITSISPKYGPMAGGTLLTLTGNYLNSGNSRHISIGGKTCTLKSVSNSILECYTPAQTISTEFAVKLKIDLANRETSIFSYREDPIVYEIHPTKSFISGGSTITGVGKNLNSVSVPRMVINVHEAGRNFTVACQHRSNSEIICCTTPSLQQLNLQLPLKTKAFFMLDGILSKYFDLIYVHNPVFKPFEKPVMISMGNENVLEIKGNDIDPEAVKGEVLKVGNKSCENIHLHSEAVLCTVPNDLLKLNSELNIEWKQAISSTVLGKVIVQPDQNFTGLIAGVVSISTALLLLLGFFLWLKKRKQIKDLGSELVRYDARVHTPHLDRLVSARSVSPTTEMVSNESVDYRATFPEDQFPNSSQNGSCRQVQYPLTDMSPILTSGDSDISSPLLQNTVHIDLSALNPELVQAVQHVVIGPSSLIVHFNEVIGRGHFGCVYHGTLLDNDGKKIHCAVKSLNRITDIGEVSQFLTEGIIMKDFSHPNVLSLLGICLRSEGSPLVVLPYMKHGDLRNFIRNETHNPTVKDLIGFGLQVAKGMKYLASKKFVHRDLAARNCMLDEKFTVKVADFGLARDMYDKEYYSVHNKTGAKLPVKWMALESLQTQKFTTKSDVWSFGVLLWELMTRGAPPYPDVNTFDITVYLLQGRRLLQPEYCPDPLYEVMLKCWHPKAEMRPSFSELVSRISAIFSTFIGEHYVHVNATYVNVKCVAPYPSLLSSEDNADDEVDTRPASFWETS
Summary of the method: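 3T3 cells over-expressing human cMet, compared against parental 3T3, seeded at 10⁵ per well and fixed with 0.1% glutaraldehyde for 12 min at 37 C. Blocked peptide-displaying phage bound for 1 h at room temperature. After PBST washes, bound phage was detected with HRP-conjugated anti-M13 antibody.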

[3] = molecular target: T1, cMet-Fc fusion protein (extracellular …); assay: phage ELISA on cMet-Fc, competitor HGF 500 ng/mL
Summary of the method: as §1

[4] = molecular target: T1, cMet-Fc fusion protein (extracellular …); assay: phage ELISA, cMet-Fc vs TRAIL-Fc
Summary of the method: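 Plates coated overnight at 4 C with 0.5 μg/mL cMet-Fc, or TRAIL-Fc as background, were blocked with 3% BSA in PBST. Peptide-displaying phage were bound 2 h at room temperature. Bound phage were detected with HRP-conjugated anti-M13 antibody.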

T1 sequence (P08581 25-932): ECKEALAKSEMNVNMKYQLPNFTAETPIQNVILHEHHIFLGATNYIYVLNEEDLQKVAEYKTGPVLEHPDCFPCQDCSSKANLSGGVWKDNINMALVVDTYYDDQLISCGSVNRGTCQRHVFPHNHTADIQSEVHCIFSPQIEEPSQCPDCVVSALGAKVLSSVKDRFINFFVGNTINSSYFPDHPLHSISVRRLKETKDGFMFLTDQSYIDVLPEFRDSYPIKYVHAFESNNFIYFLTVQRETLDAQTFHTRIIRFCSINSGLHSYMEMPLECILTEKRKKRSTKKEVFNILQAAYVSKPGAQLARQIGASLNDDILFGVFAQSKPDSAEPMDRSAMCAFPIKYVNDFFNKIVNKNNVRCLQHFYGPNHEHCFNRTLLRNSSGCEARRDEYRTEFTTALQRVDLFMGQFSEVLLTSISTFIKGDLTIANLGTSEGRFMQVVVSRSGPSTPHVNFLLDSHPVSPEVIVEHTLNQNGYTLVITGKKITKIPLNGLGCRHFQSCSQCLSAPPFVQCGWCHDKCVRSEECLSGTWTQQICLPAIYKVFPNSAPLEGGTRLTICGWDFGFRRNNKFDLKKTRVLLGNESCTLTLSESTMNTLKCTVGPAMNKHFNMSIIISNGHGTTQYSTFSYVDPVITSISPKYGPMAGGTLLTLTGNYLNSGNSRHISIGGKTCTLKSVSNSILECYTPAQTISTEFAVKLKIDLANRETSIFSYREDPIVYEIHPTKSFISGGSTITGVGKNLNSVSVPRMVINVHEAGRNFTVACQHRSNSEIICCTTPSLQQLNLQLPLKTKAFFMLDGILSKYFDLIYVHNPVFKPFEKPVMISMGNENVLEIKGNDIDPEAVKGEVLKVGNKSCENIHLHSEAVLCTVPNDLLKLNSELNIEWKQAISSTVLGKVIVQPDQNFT

AQFSGLVMYGRTHEVQWTFGSM [94-G02 peptide-displaying phage (SEQ ID NO: 477)]
% of binding in the absence of HGF [1]: 108%
WC ELISA (fold over background) [2]: 1.3 fold
% of binding in the absence of HGF [3]: 76%
Protein ELISA (fold over background) [4]: 3.5 fold

AQGFELWVDHTRNFFIAISP [127-A07 peptide-displaying phage (SEQ ID NO: 469)]
% of binding in the absence of HGF [1]: 101%
WC ELISA (fold over background) [2]: 1.2 fold
% of binding in the absence of HGF [3]: 107%
Protein ELISA (fold over background) [4]: 3.8 fold

AQELFQILEKQMWSDFMEWATP [15-D02 peptide-displaying phage (SEQ ID NO: 474)]
% of binding in the absence of HGF [1]: 97%
WC ELISA (fold over background) [2]: 1.23 fold
% of binding in the absence of HGF [3]: 118%
Protein ELISA (fold over background) [4]: 3.6 fold

AQGGRYPFYDTDWFKWEMYVL [527-A10 peptide-displaying phage (SEQ ID NO: 496)]
% of binding in the absence of HGF [1]: 84%
WC ELISA (fold over background) [2]: 1.3 fold
% of binding in the absence of HGF [3]: 78%
Protein ELISA (fold over background) [4]: 3.8 fold

AQMGHHWDVQWDYKLFHVARGD [136-D01 peptide-displaying phage (SEQ ID NO: 473)]
% of binding in the absence of HGF [1]: 85%
WC ELISA (fold over background) [2]: 1.23 fold
% of binding in the absence of HGF [3]: 149%
Protein ELISA (fold over background) [4]: 3.7 fold

AQAEWVITSEEFYWKMADFGPP [75-B12 peptide-displaying phage (SEQ ID NO: 478)]
% of binding in the absence of HGF [1]: 95%
WC ELISA (fold over background) [2]: 1.23 fold
% of binding in the absence of HGF [3]: 108%
Protein ELISA (fold over background) [4]: 3.4 fold

AQHMDPAEWDWFIRIYSPVVNP [149-E06 peptide-displaying phage (SEQ ID NO: 487)]
% of binding in the absence of HGF [1]: 80%
WC ELISA (fold over background) [2]: 1.8 fold
% of binding in the absence of HGF [3]: 86%
Protein ELISA (fold over background) [4]: 3 fold

AQWNQWDEFMWFLNPPPIGLMW [151-B08 peptide-displaying phage (SEQ ID NO: 480)]
% of binding in the absence of HGF [1]: 102%
WC ELISA (fold over background) [2]: 1.23 fold
% of binding in the absence of HGF [3]: 368%
Protein ELISA (fold over background) [4]: 3.3 fold

AQDPGFSKHSMGHGYPSKMNWG [115-G02 peptide-displaying phage (SEQ ID NO: 471)]
% of binding in the absence of HGF [1]: 59%
WC ELISA (fold over background) [2]: 1.27 fold
% of binding in the absence of HGF [3]: 0%
Protein ELISA (fold over background) [4]: 3.7 fold

AQVEDMATVHFKFNPATHEVIW [524-H02 peptide-displaying phage (SEQ ID NO: 492)]
% of binding in the absence of HGF [1]: 26%
WC ELISA (fold over background) [2]: 1.53 fold
% of binding in the absence of HGF [3]: 25%
Protein ELISA (fold over background) [4]: 3.2 fold

AQLFQYLWHDDPQGAFFQLSMW [98-F05 peptide-displaying phage (SEQ ID NO: 483)]
% of binding in the absence of HGF [1]: 88%
WC ELISA (fold over background) [2]: 1.23 fold
% of binding in the absence of HGF [3]: 57%
Protein ELISA (fold over background) [4]: 3.1 fold

AQVGESLDDGWTFFSDKWFDFF [27-D10 peptide-displaying phage (SEQ ID NO: 485)]
% of binding in the absence of HGF [1]: 111%
WC ELISA (fold over background) [2]: 1.17 fold
% of binding in the absence of HGF [3]: 131%
Protein ELISA (fold over background) [4]: 3 fold

AQKTWFLEADLFQMFQEVTWQF [103-C04 peptide-displaying phage (SEQ ID NO: 490)]
% of binding in the absence of HGF [1]: 73%
WC ELISA (fold over background) [2]: 1.4 fold
% of binding in the absence of HGF [3]: 86%
Protein ELISA (fold over background) [4]: 3 fold

AQHVVTLTLIQMPFAFNFEPRM [118-B12 peptide-displaying phage (SEQ ID NO: 484)]
% of binding in the absence of HGF [1]: 98%
WC ELISA (fold over background) [2]: 1.3 fold
% of binding in the absence of HGF [3]: 112%
Protein ELISA (fold over background) [4]: 3.1 fold

AGDHYCWEEWWFCWDSGT [482-A12 peptide-displaying phage (SEQ ID NO: 021)]
% of binding in the absence of HGF [1]: 98%
WC ELISA (fold over background) [2]: 1.37 fold
% of binding in the absence of HGF [3]: 79%
Protein ELISA (fold over background) [4]: 3.5 fold

AQRDYLFYWNDGSYQPWQVFVG [523-A04 peptide-displaying phage (SEQ ID NO: 493)]
% of binding in the absence of HGF [1]: 133%
WC ELISA (fold over background) [2]: 1.3 fold
% of binding in the absence of HGF [3]: 143%
Protein ELISA (fold over background) [4]: 5.5 fold

AGYYHCIDDFPQCKWMGT [482-D02 peptide-displaying phage (SEQ ID NO: 017)]
% of binding in the absence of HGF [1]: 66%
WC ELISA (fold over background) [2]: 1.37 fold
% of binding in the absence of HGF [3]: 44%
Protein ELISA (fold over background) [4]: 3.9 fold

AQHGYLSPLKQYQMSHVEFWTY [94-A06 peptide-displaying phage (SEQ ID NO: 476)]
% of binding in the absence of HGF [1]: 84%
WC ELISA (fold over background) [2]: 1.17 fold
% of binding in the absence of HGF [3]: 96%
Protein ELISA (fold over background) [4]: 3.5 fold

AQEWEREYFVDGFWGSWFGIPH [130-E10 peptide-displaying phage (SEQ ID NO: 472)]
% of binding in the absence of HGF [1]: 100%
WC ELISA (fold over background) [2]: 1.8 fold
% of binding in the absence of HGF [3]: 92%
Protein ELISA (fold over background) [4]: 3.7 fold

AQGIAWQLEWSYMPQSPPSFDR [522-H03 peptide-displaying phage (SEQ ID NO: 495)]
% of binding in the absence of HGF [1]: 107%
WC ELISA (fold over background) [2]: 1.17 fold
% of binding in the absence of HGF [3]: 94%
Protein ELISA (fold over background) [4]: 4.5 fold

AQQWMFQIHQSMAWPYEWIDSY [524-D07 peptide-displaying phage (SEQ ID NO: 494)]
% of binding in the absence of HGF [1]: 105%
WC ELISA (fold over background) [2]: 1.23 fold
% of binding in the absence of HGF [3]: 104%
Protein ELISA (fold over background) [4]: 3.9 fold

AQWPHDGLVHWGEVIMLRF [117-F04 peptide-displaying phage (SEQ ID NO: 479)]
% of binding in the absence of HGF [1]: 93%
WC ELISA (fold over background) [2]: 1.37 fold
% of binding in the absence of HGF [3]: 91%
Protein ELISA (fold over background) [4]: 3.3 fold

AQAYEWWADESIFNHGYYWGHQ [94-B08 peptide-displaying phage (SEQ ID NO: 470)]
% of binding in the absence of HGF [1]: 111%
WC ELISA (fold over background) [2]: 1.2 fold
% of binding in the absence of HGF [3]: 121%
Protein ELISA (fold over background) [4]: 3.8 fold

AQHWDYDSGSDFWFPVFFLEHH [79-B02 peptide-displaying phage (SEQ ID NO: 475)]
% of binding in the absence of HGF [1]: 102%
WC ELISA (fold over background) [2]: 1.3 fold
% of binding in the absence of HGF [3]: 86%
Protein ELISA (fold over background) [4]: 3.5 fold

AGVWICRVWDDECFFQGT [376-E05 peptide-displaying phage (SEQ ID NO: 020)]
% of binding in the absence of HGF [1]: 122%
WC ELISA (fold over background) [2]: 1.37 fold
% of binding in the absence of HGF [3]: 121%
Protein ELISA (fold over background) [4]: 3.7 fold

AGTVYCSWESSECWWVGT [352-E04 peptide-displaying phage (SEQ ID NO: 019)]
% of binding in the absence of HGF [1]: 88%
WC ELISA (fold over background) [2]: 1.37 fold
% of binding in the absence of HGF [3]: 74%
Protein ELISA (fold over background) [4]: 3.9 fold

AGWFECEFGFWGCNWLGT [437-A09 peptide-displaying phage (SEQ ID NO: 018)]
% of binding in the absence of HGF [1]: 89%
WC ELISA (fold over background) [2]: 1.13 fold
% of binding in the absence of HGF [3]: 78%
Protein ELISA (fold over background) [4]: 3.9 fold

AQDNTADQMFNGFHVLAMYMV [117-E09 peptide-displaying phage (SEQ ID NO: 481)]
% of binding in the absence of HGF [1]: 109%
WC ELISA (fold over background) [2]: 1.37 fold
% of binding in the absence of HGF [3]: 102%
Protein ELISA (fold over background) [4]: 3.3 fold

AQWGAVDNDWYDWEMEQIWMFE [527-E08 peptide-displaying phage (SEQ ID NO: 491)]
% of binding in the absence of HGF [1]: 98%
WC ELISA (fold over background) [2]: 1.23 fold
% of binding in the absence of HGF [3]: 95%
Protein ELISA (fold over background) [4]: 3.2 fold

AQWNWDMGFMWTTDSAQVQPSM [96-D06 peptide-displaying phage (SEQ ID NO: 489)]
% of binding in the absence of HGF [1]: 154%
WC ELISA (fold over background) [2]: 1.37 fold
% of binding in the absence of HGF [3]: 151%
Protein ELISA (fold over background) [4]: 3 fold

AQSDHDHAHWGVKHWPFRRYQ [93-B10 peptide-displaying phage (SEQ ID NO: 482)]
% of binding in the absence of HGF [1]: 0%
WC ELISA (fold over background) [2]: 1.2 fold
% of binding in the absence of HGF [3]: 0%
Protein ELISA (fold over background) [4]: 3.1 fold

AQFMYEKEHYVMSISLPGLWFY [122-D07 peptide-displaying phage (SEQ ID NO: 486)]
% of binding in the absence of HGF [1]: 102%
WC ELISA (fold over background) [2]: 1.63 fold
% of binding in the absence of HGF [3]: 92%
Protein ELISA (fold over background) [4]: 3 fold

AQMWHRVHDPGYTFEVTWLWDN [166-H04 peptide-displaying phage (SEQ ID NO: 488)]
% of binding in the absence of HGF [1]: 77%
WC ELISA (fold over background) [2]: 1.27 fold
% of binding in the absence of HGF [3]: 85%
Protein ELISA (fold over background) [4]: 3 fold
